B1: PEX13 SH3-CTR (261-403) (domain or fragment)
chain: VTDSINWASGEDDHVVARAEYDFAAVSEEEISFRAGDMLNLALKEQQPKVRGWLLASLDGQTTGLIPANYVKILGKRKGRKTVESSKVSKQQQSFTNPTLTKGATVADSLDEQEAAFESVFVETNKVPVAPDSIGKDGEKQDL
B4: PEX14 NTD (1-104) (domain or fragment)
chain: MASSEQAEQPSQPSSTPGSENVLPREPLIATAVKFLQNSRVRQSPLATRRAFLKKKGLTDEEIDMAFQQSGTAADEPSSLGPATQVVPVQPPHLISQPYSPAGS

Legend:
[1] = biological target: B4; assay: ITC
[2] = biological target: T1, PEX13 SH3 (261-346) (human, UniProt Q92968 261-346); assay: ITC
T1 sequence: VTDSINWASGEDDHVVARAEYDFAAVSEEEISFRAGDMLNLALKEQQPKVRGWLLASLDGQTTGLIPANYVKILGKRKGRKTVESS

[3] = biological target: B1; assay: ITC
[4] = biological target: T1, PEX13 SH3 (261-346); assay: NMR titration
[5] = biological target: B1; assay: NMR titration

Binder: B1
- stoichiometry N [1]: 1

Binder: GTSDAWVDQFTRPVN [PEX5 W6]
- binding result [1]: binds

B2: PEX13 FxxxF (350-403) (domain or fragment)
chain: KQQQSFTNPTLTKGATVADSLDEQEAAFESVFVETNKVPVAPDSIGKDGEKQDL
- Kd [2]: 27 µM
- Kd [1]: 2.8 µM
- stoichiometry N [1]: 1

B3: PEX13 C-terminal peptide FxxxF to PEX5 W4 (domain or fragment)
chain: QQQSFTNPTLTKGATVADSLDEQEAAWYDEYVETNKVPVAPDSIGKDGEKQDL
- Kd [2]: ~6 µM
- stoichiometry N [2]: 1

Binder: TATDRWYDEYHPEED [PEX5 W4]
- Kd [1]: 3.14 µM

Binder: B4
- Kd [3]: 5.4 µM

Binder: ALSENWAQEFLAAGD [PEX5 W1]
- binding result [1]: binds

Binder: AEAHPWLSDYDDLTS [PEX5 W7]
- binding result [1]: binds

Binder: VSPARWAEEYLEQSE [PEX5 W3]
- binding result [1]: binds

Binder: AQAEQWAAEFIQQQG [PEX5 W5]
- binding result [1]: binds

Binder: TRVPPPILPRPSQ [PEX13 PxxP peptide (49-61)]
- binding result [4]: binds
- binding result [5]: binds

Binder: YNETDWSQEFISEVT [PEX5 W2]
- binding result [1]: binds

— paper doi:10.1101/2022.12.19.520972 (bioRxiv, 2022)
